The target in the assay is T1, His6-tagged BiP-IR (amino acids 497-654), recombinant (UniProt P11021 497-654).
T1 construct: BiP (GRP78, Hspa5), amino acids 497-654; pBH4 vector; also called unlabeled BiP-IR
T1 sequence (looked up): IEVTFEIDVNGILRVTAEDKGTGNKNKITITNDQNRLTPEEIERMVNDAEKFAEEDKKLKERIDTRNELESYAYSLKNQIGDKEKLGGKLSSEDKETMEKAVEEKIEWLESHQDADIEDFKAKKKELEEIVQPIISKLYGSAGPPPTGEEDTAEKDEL
Briefly: fluorescence polarisation; saturation binding: constant 100 nM 5-IAF-CB1R-CTD, increasing amounts of unlabeled BiP or BiP-IR. The settings on record: both partners purified. For orientation: Polarisation of emitted light reports the rotation of a fluorescent probe.

B1: His6-tagged CB1R-CTD (amino acids 400-472), labeled with 5-IAF (domain or fragment, UniProt P21554 400-472, looked up)
chain: RSKDLRHAFRSMFPSCEGTAQPLDNSMGDSDCLHKHANNAASVHRAAESCIKSTVKIAKVTMSVSTDTSAEAL
modifications: labeled with 5-(iodoacetamido)fluorescein (5-IAF); labeled residue not stated
notes: pBH4 vector; also called 5-IAF-CB1R-CTD; 5-IAF-labeled CB1R-CTD
In the case of B1, the binding result is recorded as “binds”.

For the origin of these results see paper PMC8460140, “Identification of BiP as a CB1 Receptor-Interacting Protein That Fine-Tunes Cannabinoid Signaling in the Mouse Brain” (The Journal of Neuroscience, 2021).
